The target in the data set is human acyl ghrelin, Q9UBU3.
human acyl ghrelin, Q9UBU3, sequence (Q9UBU3 whole entry, looked up): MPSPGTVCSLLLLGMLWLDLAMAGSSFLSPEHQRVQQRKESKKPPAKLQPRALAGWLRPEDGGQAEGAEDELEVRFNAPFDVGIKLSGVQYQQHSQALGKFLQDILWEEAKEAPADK

B1: A199S/S227A/S287G/A328W/Y332G mutant mouse BChE (protein)
chain: EEDFIITTKTGRVRGLSMPVLGGTVTAFLGIPYAQPPLGSLRFKKPQPLNKWPDIHNATQYANSCYQNIDQAFPGFQGSEMWNPNTNLSEDCLYLNVWIPVPKPKNATVMVWIYGGGFQTGTSSLPVYDGKFLARVERVIVVSMNYRVGALGFLAFPGNPDAPGNMGLFDQQLALQWVQRNIAAFGGNPKSITIFGESSGAASVSLHLLCPQSYPLFTRAILESGSANAPWAVKHPEEARNRTLTLAKFTGCSKENEMEMIKCLRSKDPQEILRNERFVLPSDSILGINFGPTVDGDFLTDMPHTLLQLGKVKKAQILVGVNKDEGTWFLVGGAPGFSKDNDSLITRKEFQEGLNMYFPGVSRLGKEAVLFYYVDWLGEQSPEVYRDALDDVIGDYNIICPALEFTKKFAELENNAFFYFFEHRSSKLPWPEWMGVMHGYEIEFVFGLPLGRRVNYTRAEEIFSRSIMKTWANFAKYGHPNGTQGNSTMWPVFTSTEQKYLTLNTEKSKIYSKLRAPQCQFWRLFFPKVLEMTGDIDETEQEWKAGFHRWSNYMMDWQNQFNDYTSKKESCTAL
Consider B1, for which the “ghrelin hydrolyzing activity in vitro (human ghrelin immunoassay kit: decrease in acyl ghrelin, increase in deacyl ghrelin)” value was “exhibited enhanced activity (e.g., at least 20-fold more activity), comparable to that of wild type mouse BChE”.

B2: purified human butyrylcholinesterase (wild-type human BChE) (protein)
chain: EDDIIIATKNGKVRGMNLTVFGGTVTAFLGIPYAQPPLGRLRFKKPQSLTKWSDIWNATKYANSCCQNIDQSFPGFHGSEMWNPNTDLSEDCLYLNVWIPAPKPKNATVLIWIYGGGFQTGTSSLHVYDGKFLARVERVIVVSMNYRVGALGFLALPGNPEAPGNMGLFDQQLALQWVQKNIAAFGGNPKSVTLFGESAGAASVSLHLLSPGSHSLFTRAILQSGSFNAPWAVTSLYEARNRTLNLAKLTGCSRENETEIIKCLRNKDPQEILLNEAFVVPYGTPLSVNFGPTVDGDFLTDMPDILLELGQFKKTQILVGVNKDEGTAFLVYGAPGFSKDNNSIITRKEFQEGLKIFFPGVSEFGKESILFHYTDWVDDQRPENYREALGDVVGDYNFICPALEFTKKFSEWGNNAFFYYFEHRSSKLPWPEWMGVMHGYEIEFVFGLPLERRDNYTKAEEILSRSIVKRWANFAKYGNPNETQNNSTSWPVFKSTEQKYLTLNTESTRIMTKLRAQQCRFWTSFFPKVLEMTGNIDEAEWEWKAGFHRWNNYMMDWKNQFNDYTSKKESCVGL
Turning to B2, the “hydrolysis (deacylation) of acyl ghrelin in vitro; residual acyl ghrelin and desacyl ghrelin by immunoassay” value was “Incubation of a sample containing acyl ghrelin with increasing amounts of human BChE resulted in a decrease in the amount of acyl ghrelin and an increase in the amount of the breakdown product, desacyl ghrelin”; the “time course of acyl ghrelin hydrolysis in vitro” value is “A linear hydrolysis rate was observed”.

B3: A199S/F227A/S287G/A328W/Y332G mutant human BChE (protein)
chain: EDDIIIATKNGKVRGMNLTVFGGTVTAFLGIPYAQPPLGRLRFKKPQSLTKWSDIWNATKYANSCCQNIDQSFPGFHGSEMWNPNTDLSEDCLYLNVWIPAPKPKNATVLIWIYGGGFQTGTSSLHVYDGKFLARVERVIVVSMNYRVGALGFLALPGNPEAPGNMGLFDQQLALQWVQKNIAAFGGNPKSVTLFGESSGAASVSLHLLSPGSHSLFTRAILQSGSANAPWAVTSLYEARNRTLNLAKLTGCSRENETEIIKCLRNKDPQEILLNEAFVVPYGTPLGVNFGPTVDGDFLTDMPDILLELGQFKKTQILVGVNKDEGTWFLVGGAPGFSKDNNSIITRKEFQEGLKIFFPGVSEFGKESILFHYTDWVDDQRPENYREALGDVVGDYNFICPALEFTKKFSEWGNNAFFYYFEHRSSKLPWPEWMGVMHGYEIEFVFGLPLERRDNYTKAEEILSRSIVKRWANFAKYGNPNETQNNSTSWPVFKSTEQKYLTLNTESTRIMTKLRAQQCRFWTSFFPKVLEMTGNIDEAEWEWKAGFHRWNNYMMDWKNQFNDYTSKKESCVGL
In the case of B3, the “ghrelin hydrolyzing activity in vitro (human ghrelin immunoassay kit: decrease in acyl ghrelin, increase in deacyl ghrelin)” value is on record as “exhibited modest activity, comparable to that of wild type human BChE”.
